{
  "source": "patent US20170029844A1",
  "target": "Spodoptera frugiperda ABCc2 transporter (Spodoptera frugiperda)",
  "assay": "cell-based or functional assay",
  "data": [
    {"substance": "TIC105 toxin (wild type, unmodified)", "values": [
      {"measurement": "relative fluorescence of SYTOX Green, Sf9 cells expressing the SfABCc2 transporter (relative fluorescence)", "result": 57200}
    ]}
  ]
}
